Reference: paper doi:10.1101/2024.11.16.623948
pKd: −log10 of the molar value.

Experiments:
[1] = biological target: FLAG-Ago1 (Drosophila melanogaster) (UniProt A1Z9J5); experiment: filter binding; settings: guide 5' phosphate; RBNS: 20 mM HEPES-KOH pH 7.9, 100 mM KOAc, 3.5 mM Mg(OAc) (magnesium acetate), 0.05% CHAPS, 2 mM DTT, 8% glycerol, BSA, tRNA, 25 C 2 h; filter binding: 25 mM …
[2] = biological target: T1, PUM2 (human) (UniProt Q8TB72); experiment: RBNS; settings: RBNS: 20 mM HEPES-KOH pH 7.9, 100 mM KOAc, 3.5 mM Mg(OAc) (magnesium acetate), 0.05% CHAPS, 2 mM DTT, 8% glycerol, BSA, tRNA, 25 C 2 h; filter binding: 25 mM …
T1 sequence: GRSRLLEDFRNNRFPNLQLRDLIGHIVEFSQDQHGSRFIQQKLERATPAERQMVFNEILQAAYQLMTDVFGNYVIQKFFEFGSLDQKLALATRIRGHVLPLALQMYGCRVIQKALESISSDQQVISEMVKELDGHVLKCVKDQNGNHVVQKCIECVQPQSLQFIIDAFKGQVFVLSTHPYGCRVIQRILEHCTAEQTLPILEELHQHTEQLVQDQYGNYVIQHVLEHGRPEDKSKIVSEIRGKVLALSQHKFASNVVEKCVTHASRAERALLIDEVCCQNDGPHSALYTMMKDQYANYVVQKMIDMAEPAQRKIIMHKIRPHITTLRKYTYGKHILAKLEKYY

Sequence of FLAG-Ago1 (Drosophila melanogaster) (A1Z9J5 entry or part of it): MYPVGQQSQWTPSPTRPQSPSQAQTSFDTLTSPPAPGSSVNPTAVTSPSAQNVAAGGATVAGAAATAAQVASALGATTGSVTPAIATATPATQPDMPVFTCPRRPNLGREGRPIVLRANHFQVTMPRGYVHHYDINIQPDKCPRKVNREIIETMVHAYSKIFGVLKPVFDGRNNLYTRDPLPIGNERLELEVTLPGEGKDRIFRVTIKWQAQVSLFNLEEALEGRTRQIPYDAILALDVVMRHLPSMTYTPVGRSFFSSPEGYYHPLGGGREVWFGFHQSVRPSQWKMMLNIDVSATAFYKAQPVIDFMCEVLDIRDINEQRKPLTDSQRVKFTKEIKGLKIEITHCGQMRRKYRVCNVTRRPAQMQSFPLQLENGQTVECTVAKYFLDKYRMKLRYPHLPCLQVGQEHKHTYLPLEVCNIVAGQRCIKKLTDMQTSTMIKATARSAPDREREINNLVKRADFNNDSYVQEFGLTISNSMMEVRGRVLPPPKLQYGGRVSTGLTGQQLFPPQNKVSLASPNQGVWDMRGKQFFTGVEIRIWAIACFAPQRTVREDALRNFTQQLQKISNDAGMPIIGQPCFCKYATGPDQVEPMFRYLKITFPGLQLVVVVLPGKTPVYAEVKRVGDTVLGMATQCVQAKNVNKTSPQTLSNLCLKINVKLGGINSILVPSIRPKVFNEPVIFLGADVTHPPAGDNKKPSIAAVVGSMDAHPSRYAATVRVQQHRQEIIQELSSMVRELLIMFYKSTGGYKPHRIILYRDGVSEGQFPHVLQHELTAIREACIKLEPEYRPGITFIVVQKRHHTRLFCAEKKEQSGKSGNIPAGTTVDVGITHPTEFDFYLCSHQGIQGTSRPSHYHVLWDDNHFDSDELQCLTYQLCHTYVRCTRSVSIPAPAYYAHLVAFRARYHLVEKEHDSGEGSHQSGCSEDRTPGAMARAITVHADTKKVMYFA

| Sequence | pKd [1] | pKd [2] |
| --- | --- | --- |
| UGAGGUAGUAGGUUGUAUAGU / AAAAAAAAAAAAUCUACCUCU [let-7 / seed-matching target] | 11.30 | – |
| UGUAUAUA [PUM consensus site] | – | 9.49 |
| UGAGGUAGUAGGUUGUAUAGU / ACUAUACAACCUACUACCUCA [let-7 / fully complementary target] | 11.70 | – |
